This note sets out measurements from article PMC9523049, “Structures of Mec1/ATR kinase endogenously stimulated by different genotoxins” (Cell Discovery, 2022).

The target of the assay is T1, Mec1 (yeast homolog of ATR), wild type, activated in vivo by HU or MMS (yeast (endogenous in cultured yeast …, UniProt P38111 1-2368)).
T1 construct: Mec1 kinase, yeast homolog of human ATR, wild type, endogenous; purified together with Ddc2; they may stand in the supplementary file; also called ATR/Mec1; Mec1/ATR kinase; source: endogenously purified from cultured yeast cells treated with HU or MMS
Nature of the assay: cryo-EM structure; Mec1-Ddc2 complex endogenously purified from yeast cells treated with HU (HU-Dimer1, HU-Dimer2) or MMS (MMS-Dimer). Particulars: both partners purified.

T1 sequence (P38111 whole entry): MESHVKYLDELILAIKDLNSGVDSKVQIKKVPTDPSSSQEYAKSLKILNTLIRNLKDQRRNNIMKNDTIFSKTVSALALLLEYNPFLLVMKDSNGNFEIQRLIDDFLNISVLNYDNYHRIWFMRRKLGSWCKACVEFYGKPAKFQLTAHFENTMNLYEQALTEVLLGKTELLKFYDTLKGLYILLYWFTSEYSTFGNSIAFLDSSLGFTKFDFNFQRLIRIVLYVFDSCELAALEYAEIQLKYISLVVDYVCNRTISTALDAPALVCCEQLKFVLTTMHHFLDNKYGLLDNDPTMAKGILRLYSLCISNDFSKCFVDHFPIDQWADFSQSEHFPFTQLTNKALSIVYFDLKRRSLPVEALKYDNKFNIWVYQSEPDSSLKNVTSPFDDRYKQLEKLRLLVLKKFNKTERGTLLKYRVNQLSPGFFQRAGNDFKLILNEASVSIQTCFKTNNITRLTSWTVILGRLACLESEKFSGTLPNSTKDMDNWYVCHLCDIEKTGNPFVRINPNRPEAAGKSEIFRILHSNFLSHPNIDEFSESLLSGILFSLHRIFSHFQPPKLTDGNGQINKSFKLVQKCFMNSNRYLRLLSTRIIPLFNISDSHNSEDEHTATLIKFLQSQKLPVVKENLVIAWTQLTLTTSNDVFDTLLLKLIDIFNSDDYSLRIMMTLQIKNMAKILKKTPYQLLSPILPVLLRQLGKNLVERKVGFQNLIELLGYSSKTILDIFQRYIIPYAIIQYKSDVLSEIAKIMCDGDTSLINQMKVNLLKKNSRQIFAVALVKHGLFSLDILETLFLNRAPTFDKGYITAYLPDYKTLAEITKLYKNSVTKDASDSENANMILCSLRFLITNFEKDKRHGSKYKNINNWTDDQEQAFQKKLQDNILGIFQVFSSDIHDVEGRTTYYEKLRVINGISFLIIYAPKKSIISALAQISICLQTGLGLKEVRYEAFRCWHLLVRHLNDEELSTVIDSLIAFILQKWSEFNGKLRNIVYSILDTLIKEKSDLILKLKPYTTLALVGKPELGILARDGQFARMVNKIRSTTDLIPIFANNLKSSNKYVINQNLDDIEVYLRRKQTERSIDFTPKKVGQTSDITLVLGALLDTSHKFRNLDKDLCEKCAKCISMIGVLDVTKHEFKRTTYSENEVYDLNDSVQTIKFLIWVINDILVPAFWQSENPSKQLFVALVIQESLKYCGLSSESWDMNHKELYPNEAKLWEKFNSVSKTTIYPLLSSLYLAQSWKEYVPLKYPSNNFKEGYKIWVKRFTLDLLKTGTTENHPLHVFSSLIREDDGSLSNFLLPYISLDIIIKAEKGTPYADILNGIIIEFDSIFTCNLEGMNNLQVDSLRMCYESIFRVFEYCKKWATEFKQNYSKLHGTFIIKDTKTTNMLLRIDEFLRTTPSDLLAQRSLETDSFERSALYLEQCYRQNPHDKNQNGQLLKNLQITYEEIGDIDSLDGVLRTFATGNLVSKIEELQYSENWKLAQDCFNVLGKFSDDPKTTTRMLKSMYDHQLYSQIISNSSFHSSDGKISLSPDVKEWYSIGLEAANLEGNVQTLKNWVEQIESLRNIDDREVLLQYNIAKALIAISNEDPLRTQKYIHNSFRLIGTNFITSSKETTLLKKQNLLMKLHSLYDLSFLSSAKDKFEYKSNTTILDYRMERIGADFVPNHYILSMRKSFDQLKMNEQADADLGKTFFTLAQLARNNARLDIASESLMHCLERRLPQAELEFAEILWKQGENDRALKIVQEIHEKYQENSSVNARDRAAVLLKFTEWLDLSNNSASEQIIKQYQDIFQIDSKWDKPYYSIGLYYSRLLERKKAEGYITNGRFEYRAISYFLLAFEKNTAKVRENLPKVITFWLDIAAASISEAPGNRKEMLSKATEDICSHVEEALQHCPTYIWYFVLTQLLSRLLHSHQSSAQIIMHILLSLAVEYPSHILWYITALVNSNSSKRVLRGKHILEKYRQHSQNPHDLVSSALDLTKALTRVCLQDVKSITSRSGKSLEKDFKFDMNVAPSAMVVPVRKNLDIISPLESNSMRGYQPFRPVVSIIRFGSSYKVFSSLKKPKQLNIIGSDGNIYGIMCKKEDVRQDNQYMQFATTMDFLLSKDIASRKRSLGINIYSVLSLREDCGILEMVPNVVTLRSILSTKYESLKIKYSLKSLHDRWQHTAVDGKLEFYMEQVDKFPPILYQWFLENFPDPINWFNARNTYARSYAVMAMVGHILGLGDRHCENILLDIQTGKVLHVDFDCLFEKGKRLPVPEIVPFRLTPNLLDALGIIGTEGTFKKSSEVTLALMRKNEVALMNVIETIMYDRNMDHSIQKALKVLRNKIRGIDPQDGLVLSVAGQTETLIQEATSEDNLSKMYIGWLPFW

B1: Ddc2 (yeast homolog of ATRIP) (natural protein, UniProt Q04377 1-747, looked up)
chain: MRRETVGEFSSDDDDDILLELGTRPPRFTQIPPSSAALQTQIPTTLEVTTTTLNNKQSKNDNQLVNQLNKAQGEASMLRDKINFLNIEREKEKNIQAVKVNELQVKHLQELAKLKQELQKLEDEKKFLQMEARGKSKREVITNVKPPSTTLSTNTNTITPDSSSVAIEAKPQSPQSKKRKISDNLLKKNMVPLNPNRIIPDETSLFLESILLHQIIGADLSTIEILNRLKLDYITEFKFKNFVIAKGAPIGKSIVSLLLRCKKTLTLDRFIDTLLEDIAVLIKEISVHPNESKLAVPFLVALMYQIVQFRPSATHNLALKDCFLFICDLIRIYHHVLKVPIHESNMNLHVEPQIFQYELIDYLIISYSFDLLEGILRVLQSHPKQTYMEFFDENILKSFEFVYKLALTISYKPMVNVIFSAVEVVNIITSIILNMDNSSDLKSLISGSWWRDCITRLYALLEKEIKSGDVYNENVDTTTLHMSKYHDFFGLIRNIGDNELGGLISKLIYTDRLQSVPRVISKEDIGMDSDKFTAPIIGYKMEKWLLKLKDEVLNIFENLLMIYGDDATIVNGEMLIHSSKFLSREQALMIERYVGQDSPNLDLRCHLIEHTLTIIYRLWKDHFKQLREEQIKQVESQLIMSLWRFLVCQTETVTANEREMRDHRHLVDSLHDLTIKDQASYYEDAFEDLPEYIEEELKMQLNKRTGRIMQVKYDEKFQEMARTILESKSFDLTTLEEADSLYISMGL
notes: Ddc2, yeast homolog of human ATRIP, endogenous; purified together with Mec1; they may stand in the supplementary file; source: endogenously purified from cultured yeast cells treated with HU or MMS
As for B1, the binding result is reported as “binds”.
